Test results published in patent US20250145716A1 (RAKUTEN MEDICAL, published 2025).

Tests used:
[1] = target: T1, human PD-L1 expressed on cells (human, UniProt Q9NZQ7 19-290); experiment: flow cytometry, PD-L1-expressing CHO cells, MFI (FITC)
T1 construct: whole, on cells; One entry covers all human PD-L1-bearing cells; also called huPD-L1 on CHO cells (CHO-hPD-L1); PD-L1 on A431 cells
Protocol: Wild-type (wt) Chinese hamster ovary (CHO) cells (ATCC) and CHO cells engineered to express huPD-L1 (BPS Bioscience) were seeded at 200,000 cells in 50 μL FACS buffer (PBS containing 1% FBS and 5 mM EDTA) per well of a 96-well plate. Cell viability was assessed by adding 50 μL 2×Zombie Violet (BioLegend). Dead cell controls were also prepared and 2×Zombie violet was added. After incubating 20-30 minutes at room temperature, protected from light, 150 μL FACS buffer were added to each well. The plates were centrifuged, and the supernatant was aspirated. […] The plates were incubated 30 minutes on ice, protected from light. 150 μL FACS buffer were then added to each well and the plate was centrifuged. The supernatant was removed and the cells were washed three times in 200 μL FACS buffer. […] The cells were incubated 30 minutes on ice, protected from light. 150 μL FACS buffer were then added to each well and the plate was centrifuged. Supernatant was removed and the cells were washed twice with 200 μL FACS buffer. The cells were then resuspended in FACS buffer and analyzed by CytoFLEX using the appropriate channels. After gating for whole, single, live cells, the MFI in the APC channel (or FITC channel for human control samples) was normalized to the signal from hybridoma media alone (or isotype control for human control). MFI fold over media alone was determined for each clone supernatant tested.

[2] = target: T2, human B7-1/CD80 (RD Systems 9050-B1) (human, UniProt P33681 35-242); experiment: ELISA, plate-coated human B7-1/CD80 (1 µg/mL), OD 450 nm, B7 ligand specificity panel
T2 sequence (looked up): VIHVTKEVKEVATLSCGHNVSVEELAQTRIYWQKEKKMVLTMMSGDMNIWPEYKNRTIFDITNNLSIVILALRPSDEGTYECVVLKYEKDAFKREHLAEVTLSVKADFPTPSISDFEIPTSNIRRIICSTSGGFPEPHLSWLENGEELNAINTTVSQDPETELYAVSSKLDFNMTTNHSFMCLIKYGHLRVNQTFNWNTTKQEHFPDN
Protocol: Hybridoma supernatants were tested for binding to huPD-L1, cyPD-L1, and muPD-L1 by ELISA. Briefly, 30 μL 6xHis-tagged huPD-L1, cyPD-L1, or muPD-L1 (1 μg/mL in PBS) were immobilized in wells of a 96-well assay plate overnight at 4° C. After washing and blocking steps, 30 μL of antibody supernatant were added to the plate and incubated at room temperature for 1 hr. Bound human antibody was detected using horseradish peroxidase (HRP)-conjugated goat anti-human Fc (Invitrogen Cat. No. 109-035-097; diluted 1:5000) or goat anti-mouse Fc HRP (Invitrogen Cat. No. 115-035-071) as a control. Bound antibody was detected with 1-Step Ultra™ TMB-ELISA Substrate (ThermoFisher Scientific Cat. No. 34029). When the reaction was complete the reaction was stopped, and the plate was read at 450 nm.
Briefly, wells of a 96-well plate (Corning 3690) were incubated with 30 μL human PD-L1 (RD Systems 9049-B7), human PD-L2 (RD Systems 9075-PL), human B7-1/CD80 (RD Systems 9050-B1), human B7-2/CD86 (RD Systems 9090-B2), human B7-H2 (RD Systems 8206-B7), or human B7-H3 (RD Systems 1949-B3), at a concentration of 1 μg/mL in PBS, overnight at 4C, to coat the wells with ligand. After washing and blocking steps, 30 μL of antibody at 8 concentrations ranging from 1 ng/mL to 3 mg/mL were added to the plate and incubated at room temperature for 1 hr. Bound human antibody was detected as described above.

T1 sequence (Q9NZQ7 19-290): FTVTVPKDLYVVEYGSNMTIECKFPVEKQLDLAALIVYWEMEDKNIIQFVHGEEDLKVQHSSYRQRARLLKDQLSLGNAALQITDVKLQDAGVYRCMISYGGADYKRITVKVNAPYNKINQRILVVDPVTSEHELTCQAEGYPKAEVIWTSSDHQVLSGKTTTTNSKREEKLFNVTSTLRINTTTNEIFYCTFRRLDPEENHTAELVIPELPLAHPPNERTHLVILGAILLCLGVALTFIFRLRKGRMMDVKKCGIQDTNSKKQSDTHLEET

B1: 1P9 (antibody, V domains shown)
VH: EVQLVESGGGLVQPGGSLRLSCAASGFTFSTYWMSWVRQAPGKGLEWVANIKQDGGERYYVDSVKGRFTISRDNAKSSLYLQMNSLRAEDTALYYCARLRLYSDYEDYWGQGTLVTVSS
VL: DIQMTQSPSSVSASVGDRVTITCRASQGISSWLAWYQQKPGKAPKLLIYSVSSLQSGVPSRFSGSGSGTDFTLTISSLQPEDSATYYCQQANSLPPTFGGGTKVEIK
notes: Recombinant full-length human antibody expressed in CHO K1 GS KO cells, with wild-type human Fc; also called anti-PD-L1 antibody 1P9; Unconj; 1P9
EC50 [1]: 0.0199 µg/mL | EC50 [2]: 5.31 µg/mL
